# B1: pK15 CT^WT: pK15 cytoplasmic tail fused to GST at its N-terminal end, phosphorylated in vitro by Src (protein)
# chain: SQLLNEVELQEVNRDPPNVFGYASILVSGAEESREPSPQPDQSGMSILRVDGGSAFRIDTAQAATQPTDDLYEEVLFPRN
# modifications: tyrosine-phosphorylated in vitro by Src; sites not stated for this construct; left off: GST, N-terminal, kept
# Legend:
# [1] = test system: full length PLCγ1 R586L+R694L; assay: GST-pulldown, full-length PLCγ1 double mutant; conditions: phosphorylated; binding eliminated for SA domain but not full length
# Protocol: Fig 3 Contribution of individual PLCγ1 SH2 domains to the interaction with phosphorylated pK15. The pK15 CT fused to GST, its Y^481F mutant, or GST alone were bound to glutathione beads, phosphorylated in vitro (+) or left unphosphorylated (-), and a GST pulldown was performed 32h after transfection into HEK-293T cells of expression vectors for S-tagged full-length PLCγ1 (FL) (A) or PLCγ1 SA (B) containing the indicated mutations. (C) pK15 CT WT, its Y^481F mutant or GST were bound to glutathione beads, phosphorylated in vitro (+) or left unphosphorylated (-), and used for a GST pulldown assay 32h after transfecting HEK 293T cells with expression vectors for S-tagged individual PLCγ1 nSH2 or cSH2 domains. […]
# HEK293T cells were washed once with cold PBS 30 hours after transfection, lysed in IP buffer (50 mM Tris pH7.6, 60 mM NaCl, 6.25 mM EDTA, 1% (v/v) glycerol, 0.04% (v/v) NP-40) on ice for 30 minutes, sonicated shortly and cleared by centrifugation for 10 minutes at 20.000g, 4°C. […] Beads were then washed 5 times in 500 μl IP buffer (or for purified proteins IP buffer with 200 mM NaCl), suspended in 10 μl of 5x Laemmli sample buffer (60 mM Tris pH6.8, 24% (v/v) glycerol, 2% (v/v) SDS, 5% (v/v) β-mercaptoethanol, 0.01% Bromphenol Blue) and analysed by western blot.
# [2] = test system: PLCγ1 tSH2 domain; assay: AlphaLISA, PLCγ1 tSH2; type: binding; conditions: phosphorylated by 2xStrep-Src, 300 nM each protein, 1 h room temperature, 615 nm, at least two independent experiments
# Protocol: (§1) Fig 4 The PLCγ1 cSH2 domain is required for the binding of PLCγ1 to phosphorylated pK15 in vitro and may serve as a dominant-negative inhibitor. GST-fused pK15 cytoplasmic tail WT (A), or its truncated mutant N2 [51] (B), were phosphorylated in vitro by 2xStrep-Src and an AlphaLISA was performed with the indicated His-tagged fragments of PLCγ1. Mean and standard deviation from at least two independent experiments with two technical replicates each are depicted. GST fusion proteins of the N1 (C) or N2 (D) truncation mutants of the pK15 cytoplasmic tail were phosphorylated in vitro by 2xStrep-Src and their interaction with recombinant purified PLCγ1 tSH2 (tandem SH2) or SA (γ-specific array) domains was measured by AlphaLISA in the presence of increasing concentrations (300 nM, 600 nM, 900 nM, 1200 nM) of the purified PLCγ1 cSH2. […] After 48h lysates were collected and analysed by Western blot using an antibody to PLCγ1 pY^783 to assess the level of PLCγ1 phosphorylation. (F) The intensities of the pPLCγ1 bands shown in panel E were quantified by densitometry, normalized to the values obtained with the empty vector (EV) in the presence of pK15, and plotted as relative values. […]
# (§2) His-tagged PLCγ1 (SA, tSH2 or the isolated SH2 domains) was incubated at room temperature with GST-tagged K15P or its mutants for 1 hour. […] Emission at 615 nm was detected on BioTek Synergy 2 plate reader.
# [3] = test system: PLCγ1 SA domain; assay: AlphaLISA, PLCγ1 SA; type: binding; conditions: phosphorylated by 2xStrep-Src, 300 nM each protein, 1 h room temperature, 615 nm, at least two independent experiments
# Protocol: as §1, §2
# [4] = test system: PLCγ1 nSH2 domain; assay: AlphaLISA, isolated PLCγ1 nSH2; type: binding; conditions: phosphorylated; 300 nM each protein; domain tested individually
# Protocol: as §1, §2
molecule,measurement,setting,value
B1,binding of double mutant (GST-pulldown),[1],not to full length PLCγ1
same,interaction (AlphaLISA),[2],bound more strongly to the PLCγ1 tSH2 domain than to the PLCγ1 SA domain
same,interaction (AlphaLISA),[2]; listed as pK15 CT^N2,binds strongly to the PLCγ1 tSH2 domain
same,interaction (AlphaLISA),[3],does interact with the PLCγ1 SA
same,interaction (AlphaLISA),[3]; listed as pK15 CT^N2,only bound weakly to PLCγ1 SA
same,interaction (AlphaLISA),[4],not the nSH2 domain

# Reference: PMC8244865, “Recruitment of phospholipase Cγ1 to the non-structural membrane protein pK15 of Kaposi Sarcoma-associated herpesvirus promotes its Src-dependent phosphorylation” (PLoS Pathogens, 2021)
